Test results: paper PMC6336354, “A transient helix in the disordered region of dynein light intermediate chain links the motor to structurally diverse adaptors for cargo transport” (PLoS Biology, 2019)

Biological target: T1, RILP(1–401)::Strep-tag II (human, UniProt Q96NA2 1-401)
T1 construct: also called RILP::Strep-tag II; source: Sf21 insect cells (baculovirus), purified (Strep-Tactin Sepharose); not shown: Strep-tag II (after linker GSGSGR), C-terminal, kept
T1 sequence (looked up): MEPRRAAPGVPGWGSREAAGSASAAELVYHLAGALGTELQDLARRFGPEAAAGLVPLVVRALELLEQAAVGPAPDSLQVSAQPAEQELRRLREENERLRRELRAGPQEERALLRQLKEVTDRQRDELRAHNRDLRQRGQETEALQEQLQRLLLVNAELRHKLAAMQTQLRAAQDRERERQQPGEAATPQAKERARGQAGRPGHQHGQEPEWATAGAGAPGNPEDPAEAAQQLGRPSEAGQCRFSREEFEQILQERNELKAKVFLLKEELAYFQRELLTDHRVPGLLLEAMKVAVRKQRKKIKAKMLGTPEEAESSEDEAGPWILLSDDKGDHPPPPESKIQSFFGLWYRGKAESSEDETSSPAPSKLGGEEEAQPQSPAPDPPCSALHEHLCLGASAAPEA
Test: SPR; Biacore X100, CM5 chip; GST::LIC1::6xHis captured by immobilised anti-GST antibody, RILP::Strep-tag II as analyte (0.3–50 μM); 25°C; 10 mM HEPES, 150 mM NaCl, 3 mM EDTA, 0.05% surfactant P20, pH 7.4; 1:1 model
Conditions: both partners purified

Kd: 1670 nM | koff: 0.000996 s⁻¹ | kon: 606 M⁻¹ s⁻¹
B1: GST::LIC1(440–455)::6xHis (peptide)
chain: WSEGVLANFFNSLLSKK
notes: single N-terminal tryptophan added in the construct; human dynein light intermediate chain 1 (DYNC1LI1), helix 1, residues 440-455; also called LIC1-C helix 1; GST::LIC1(440–455)::6His; source: E. coli BL21, purified (glutathione agarose, Ni-NTA; dialysis or SEC); not shown: GST, N-terminal, kept; 6xHis (after linker GSGSG), C-terminal, kept
